Measured values taken from US20240368295A1 (SUTRO BIOPHARMA, published 2024).

T1: BCMA on BCMA-positive NCI-H929, ARP-1 and U266B1 cells (human, UniProt Q02223 1-184)
T1 construct: they are human cell lines; also called B-cell maturation antigen; TNFRSF17
T1 sequence: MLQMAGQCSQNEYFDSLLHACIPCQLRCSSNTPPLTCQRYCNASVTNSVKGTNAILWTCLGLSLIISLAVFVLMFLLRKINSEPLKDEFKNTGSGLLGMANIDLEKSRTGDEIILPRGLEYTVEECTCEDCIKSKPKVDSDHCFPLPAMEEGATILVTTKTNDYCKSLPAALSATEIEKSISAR


Assays:
[1] = molecular target: T1, BCMA on BCMA-positive NCI-H929, ARP-1 …; assay: FACS, NCI-H929 cells
Description: (§1) Variants for which sufficient protein was purified in secondary screening were tested in a fluorescence-activated cell sorting (FACS) cell-binding assay. […] 6-12 point dilutions of anti-BCMA variants starting from concentrations of about 100-200 nM antibody were dispensed into each well using a BioMekFX (Beckman Coulter). Cells were then incubated on ice for 1 hr, washed with FACS buffer and incubated for 1 hr on ice with […] FACS buffer containing […] Alexa647-conjugated Goat Anti-Human IgG dispensed using BioMekFX (Beckman Coulter). Cells were then washed 2× with FACS buffer and fixed for 10 minutes in […] PBS with 2% PFA prior to fluorescence detection. Samples were acquired using a Beckton Dickinson LSRII FACS. Geometric Mean Fluorescence Intensity of BCMA antibody binding was analyzed using FlowJo® software (Trec Star, Inc.).

[2] = molecular target: cynomolgus BCMA on 293T-cynoBCMA cells (cynomolgus, UniProt Q02223 1-184 (human entry)); assay: FACS, 293T-cynoBCMA cells
Sequence of cynomolgus BCMA on 293T-cynoBCMA cells (Q02223 other isoform, or with tags, fused parts or gaps): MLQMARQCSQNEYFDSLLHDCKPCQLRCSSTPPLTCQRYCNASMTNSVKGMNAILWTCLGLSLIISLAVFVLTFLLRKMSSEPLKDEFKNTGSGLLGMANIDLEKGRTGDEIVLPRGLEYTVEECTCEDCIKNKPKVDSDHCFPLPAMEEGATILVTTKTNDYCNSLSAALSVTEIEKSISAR
Description: as §1

[3] = molecular target: T1, BCMA on BCMA-positive NCI-H929, ARP-1 …; assay: cell-based or functional assay

| Binder | Bmax (MFI) [1] [MFI] | Bmax (MFI) [2] [MFI] | Kd [1] [nM] | ARP-1, SC225-conjugated 2° antibody cell killing, EC50 [3] [nM] | ARP-1, SC225-conjugated 2° antibody cell killing, Span [3] [%] | U266B1, SC225-conjugated 2° antibody cell killing, EC50 [3] [nM] | U266B1, SC225-conjugated 2° antibody cell killing, Span [3] [%] | Kd [2] [nM] |
| --- | --- | --- | --- | --- | --- | --- | --- | --- |
| SRP2137-A05 (antibody, IgG1, V domains shown, IgG1 with trastuzumab light chain, His/FLAG-tagged, cell-free expressed; also called Antibody 14) VH: EVQLVESGGGLVQPGGSLRLSCAASGFNINNSYIHWVRQAPGKGLEWVGWIYPYSGYTNYADSVKGRFTISADTSKNTAYLQMNSLRAEDTAVYYCARDYGPWYGTGVLDYWGQGTLVTVSS VL: not shown | 2690 | 1910 |  |  |  |  |  |  |
| SRP2213-A06 (antibody, IgG1, V domains shown, IgG1 with trastuzumab light chain, His/FLAG-tagged, cell-free expressed; also called Antibody 23) VH: EVQLVESGGGLVQPGGSLRLSCAASGFNISSYAIHWVRQAPGKGLEWVGVISPYGGYTEYADSVKGRFTISADTSKNTAYLQMNSLRAEDTAVYYCARDFYDRYSTYVLDYWGQGTLVTVSS VL: not shown | 2510 | 3620 |  |  |  |  |  |  |
| SRP2265-B06 (antibody, IgG1, V domains shown, IgG1 with trastuzumab light chain, His/FLAG-tagged, cell-free expressed; also called Antibody 5) VH: EVQLVESGGGLVQPGGSLRLSCAASGFNIRVSGIHWVRQAPGKGLEWVGFINPAGGYTDYADSVKGRFTISADTSKNTAYLQMNSLRAEDTAVYYCARDYVQAYWTYVLDYWGQGTLVTVSS VL: not shown | 11900 | 26600 | 6.2 | 1.6 | 67 | 0.6 | 59 | 3.4 |
| SRP2265-C03 (antibody, IgG1, V domains shown, IgG1 with trastuzumab light chain, His/FLAG-tagged, cell-free expressed; also called Antibody 11) VH: EVQLVESGGGLVQPGGSLRLSCAAPGFNISVPGIHWVRQAPGKGLEWVGFINPAGGYTDYADSVKGRFTISADTSKNTAYLQMNSLRAEDTAVYYCARDYVPQYWTYVLDYWGQGTLVTVSS VL: not shown | 11500 | 24100 | 4.4 | 2.2 | 70 | 1.1 | 61 | 4.9 |
| SRP2265-C02 (antibody, IgG1, V domains shown, IgG1 with trastuzumab light chain, His/FLAG-tagged, cell-free expressed; also called Antibody 12) VH: EVQLVESGGGLVQPGGSLRLSCAASGFNIGVSGIHWVRQAPGKGLEWVGFINPAGGYTDYAGSVKGRFTISADTSKNTAYLQMNSLRAEDTAVYYCARDYIYSYWTYVLDYWGQGTLVTVSS VL: not shown | 11200 | 17400 | 4.3 | 1.5 | 55 | 0.7 | 51 | 2.5 |
| SRP2265-D11 (antibody, IgG1, V domains shown, IgG1 with trastuzumab light chain, His/FLAG-tagged, cell-free expressed; also called Antibody 9) VH: EVQLVESGGGLVQPGGSLRLSCAASGFNISGPGIHWVRQAPGKGLEWVGFINPAAGYTDYADSVKGRFTISADTSKNTAYLQMNSLRAEDTAVYYCARDYIYQYWTYVLDYWGQGTLVTVSS VL: not shown | 9620 | 21900 | 4.4 | 1.9 | 51 | 1 | 54 | 2.5 |
| SRP2265-F02 (antibody, IgG1, V domains shown, IgG1 with trastuzumab light chain, His/FLAG-tagged, cell-free expressed; also called Antibody 4) VH: EVQLVESGGGLVQPGGSLRLSCAASGFNISAPGIHWVRQAPGKGLEWVGFINPAGGYTDYADSVKGRFTISADTSKNTAYLQMNSLRAEDTAVYYCARDYIRQYWTYVLDYWGQGTLVTVSS VL: not shown | 12200 | 21800 | 4.5 | 1.6 | 62 | 1 | 62 | 5 |
| SRP2265-F03 (antibody, IgG1, V domains shown, IgG1 with trastuzumab light chain, His/FLAG-tagged, cell-free expressed; also called Antibody 7) VH: EVQLVESGGGLVQPGGSLRLSCAASGFNIRGPGIHWVRQAPGKGLEWVGFISPAAGYTDYADSVKGRFTISADTSKNTAYLQMNSLRAEDTAVYYCARDFVQSYWTYVLDYWGQGTLVTVSS VL: not shown | 12500 |  | 5.3 | 2.3 | 57 | 0.8 | 56 |  |
| SRP2265-D05 (antibody, IgG1, V domains shown, IgG1 with trastuzumab light chain, His/FLAG-tagged, cell-free expressed; also called Antibody 10) VH: EVQLVESGGGLVQPGGSLRLSCAASGFNISGPGIHWVRQAPGKGLEWVGFINPAAGYTDYADSVKGRFAISADTSKNTAYLQMNSLRAEDTAVYYCARDFVYAYWTYVLDYWGQGTLVTVSS VL: not shown | 10900 | 21300 | 4 | 1 | 50 | 0.8 | 53 | 3.8 |
| SRP2265-A06 (antibody, IgG1, V domains shown, IgG1 with trastuzumab light chain, His/FLAG-tagged, cell-free expressed; also called Antibody 13) VH: EVQLVESGGGLVQPGGSLRLSCAASGFNIYRSGIHWVRQAPGKGLEWVGFINPAGGYTDYADSVKGRFTISADTSKNTAYLQMNSLRAEDTAVYYCARDYVPQYWTYVLDYWGQGTLVTVSS VL: not shown | 11100 | 22100 |  | 2.9 | 68 | 1.3 | 59 |  |
| SRP2265-F05 (antibody, IgG1, V domains shown, IgG1 with trastuzumab light chain, His/FLAG-tagged, cell-free expressed; also called Antibody 3) VH: EVQLVESGGGLVQPGGSLRLSCAASGFNIIAPGIHWVRQAPGKGLEWVGFINPAGGYTDYADSVKGRFTISADTSKNTAYLQMNSLRAEDTAVYYCARDYVNAYWTYVLDYWGQGTLVTVSS VL: not shown | 12700 | 18500 | 10.3 | 1.8 | 52 | 1.2 | 61 | 3 |
| SRP2265-E02 (antibody, IgG1, V domains shown, IgG1 with trastuzumab light chain, His/FLAG-tagged, cell-free expressed; also called Antibody 8) VH: EVQLVESGGGLVQPGGSLRLSCAASGFNIYVSGIHWVRQAPGKGLEWVGFINPAGGYTDYADSVKGRFTISADTSKNTAYLQTNSLRAEDTAVYYCARDYVYQYWTYVLDYWGQGTLVTVSS VL: not shown | 11600 | 26700 |  | 1.5 | 55 | 0.8 | 53 | 5.1 |
| SRP2265-F06 (antibody, IgG1, V domains shown, IgG1 with trastuzumab light chain, His/FLAG-tagged, cell-free expressed; also called Antibody 2) VH: EVQLVESGGGLVQPGGSLRLSCAASGFNISYPGIHWVRQAPGKGLEWVGFINPAGGYTDYADSVKGRFTISADTSKNTAYLQMNSLRAEDTAVYYCARDYILQYWTYVLDYWGQGTLVTVSS VL: not shown | 11400 | 25800 |  | 1.2 | 62 | 0.9 | 59 |  |
| SRP2265-A09 (antibody, IgG1, V domains shown, IgG1 with trastuzumab light chain, His/FLAG-tagged, cell-free expressed; also called Antibody 6) VH: EVQLVESGGGLVQPGGSLRLSCAASGFNIIGPGIHWVRQAPGKGLEWVGFINPAGGYTDYADSVKGRFTISADTSKNTAYLQMNSLRAEDTAVYYCARDYVYNYWTYVLDYWGQGTLVTVSS VL: not shown | 11700 | 23800 | 5.2 | 1.9 | 55 | 0.9 | 58 | 6.2 |
